{"source": "patent US20240417439A1", "about": "“RECOMBINANT POLYPEPTIDE FOR DISRUPTING INTERACTION OF EAG2 AND KVß2 AND THERAPEUTIC APPLICATIONS THEREOF IN CANCER TREATMENT” (The Hospital for Sick Children, priority 2021, published 2024)", "molecules": {"B1": {"name": "Kvß2 truncation mutant f2 (79-316 aa) (other)", "chain": "NGINLFDTAEVYAAGKAEVVLGNIIKKKGWRRSSLVITTKIFWGGKAETERGLSRKHIIEGLKASLERLQLEYVDVVFANRPDPNTPMEETVRAMTHVINQGMAMYWGTSRWSSMEIMEAYSVARQFNLTPPICEQAEYHMFQREKVEVQLPELFHKIGVGAMTWSPLACGIVSGKYDSGIPPYSRASLKGYQWLKDKILSEEGRRQQAKLKELQAIAERLGCTLPQLAIAWCLRNEG", "notes": "Expressed in HEK293T cells"}, "B2": {"name": "Kvß2 truncation mutant f4 (79-158 aa) (other)", "chain": "NGINLFDTAEVYAAGKAEVVLGNIIKKKGWRRSSLVITTKIFWGGKAETERGLSRKHIIEGLKASLERLQLEYVDVVFAN", "notes": "Expressed in HEK293T cells"}, "B3": {"name": "Kvß2 truncation mutant f7 (1-316 aa) (other)", "chain": "MYPESTTGSPARLSLRQTGSPGMIYSTRYGSPKRQLQFYRNLGKSGLRVSCLGLGTWVTFGGQITDEMAEQLMTLAYDNGINLFDTAEVYAAGKAEVVLGNIIKKKGWRRSSLVITTKIFWGGKAETERGLSRKHIIEGLKASLERLQLEYVDVVFANRPDPNTPMEETVRAMTHVINQGMAMYWGTSRWSSMEIMEAYSVARQFNLTPPICEQAEYHMFQREKVEVQLPELFHKIGVGAMTWSPLACGIVSGKYDSGIPPYSRASLKGYQWLKDKILSEEGRRQQAKLKELQAIAERLGCTLPQLAIAWCLRNEG", "notes": "Expressed in HEK293T cells"}, "B4": {"name": "Kvß2 truncation mutant f8 (1-342 aa) (other)", "chain": "MYPESTTGSPARLSLRQTGSPGMIYSTRYGSPKRQLQFYRNLGKSGLRVSCLGLGTWVTFGGQITDEMAEQLMTLAYDNGINLFDTAEVYAAGKAEVVLGNIIKKKGWRRSSLVITTKIFWGGKAETERGLSRKHIIEGLKASLERLQLEYVDVVFANRPDPNTPMEETVRAMTHVINQGMAMYWGTSRWSSMEIMEAYSVARQFNLTPPICEQAEYHMFQREKVEVQLPELFHKIGVGAMTWSPLACGIVSGKYDSGIPPYSRASLKGYQWLKDKILSEEGRRQQAKLKELQAIAERLGCTLPQLAIAWCLRNEGVSSVLLGASNADQLMENIGAIQVLPK", "notes": "Expressed in HEK293T cells"}, "B5": {"name": "Kvß2 isoform 4 (other)", "chain": "MAEQLMTLAYDNGINLFDTAEVYAAGKAEVVLGNIIKKKGWRRSSLVITTKIFWGGKAETERGLSRKHIIEGLKASLERLQLEYVDVVFANRPDPNTPMEETVRAMTHVINQGMAMYWGTSRWSSMEIMEAYSVARQFNLTPPICEQAEYHMFQREKVEVQLPELFHKIGVGAMTWSPLACGIVSGKYDSGIPPYSRASLKGYQWLKDKILSEEGRRQQAKLKELQAIAERLGCTLPQLAIAWCLRNEGVSSVLLGASNADQLMENIGAIQVLPKLSSSIIHEIDSILGNKPYSKKDYRS", "notes": "Expressed in HEK293T cells; also called Kvβ2 isoform 4; Kvß2 splice isoform 4"}, "B6": {"name": "Kvß2 truncation mutant f1 (1-158 aa) (other)", "chain": "MYPESTTGSPARLSLRQTGSPGMIYSTRYGSPKRQLQFYRNLGKSGLRVSCLGLGTWVTFGGQITDEMAEQLMTLAYDNGINLFDTAEVYAAGKAEVVLGNIIKKKGWRRSSLVITTKIFWGGKAETERGLSRKHIIEGLKASLERLQLEYVDVVFAN", "notes": "Expressed in HEK293T cells"}, "B7": {"name": "Kvß2 truncation mutant f3 (239-367 aa) (other)", "chain": "GAMTWSPLACGIVSGKYDSGIPPYSRASLKGYQWLKDKILSEEGRRQQAKLKELQAIAERLGCTLPQLAIAWCLRNEGVSSVLLGASNADQLMENIGAIQVLPKLSSSIIHEIDSILGNKPYSKKDYRS", "notes": "Expressed in HEK293T cells"}, "B8": {"name": "Kvß2 truncation mutant f5 (239-316 aa) (other)", "chain": "GAMTWSPLACGIVSGKYDSGIPPYSRASLKGYQWLKDKILSEEGRRQQAKLKELQAIAERLGCTLPQLAIAWCLRNEG", "notes": "Expressed in HEK293T cells"}, "B9": {"name": "Kvß2 truncation mutant f6 (317-367 aa) (other)", "chain": "VSSVLLGASNADQLMENIGAIQVLPKLSSSIIHEIDSILGNKPYSKKDYRS", "notes": "Expressed in HEK293T cells"}, "B10": {"name": "Kvß2 truncation mutant f9 (1-355 aa) (other)", "chain": "MYPESTTGSPARLSLRQTGSPGMIYSTRYGSPKRQLQFYRNLGKSGLRVSCLGLGTWVTFGGQITDEMAEQLMTLAYDNGINLFDTAEVYAAGKAEVVLGNIIKKKGWRRSSLVITTKIFWGGKAETERGLSRKHIIEGLKASLERLQLEYVDVVFANRPDPNTPMEETVRAMTHVINQGMAMYWGTSRWSSMEIMEAYSVARQFNLTPPICEQAEYHMFQREKVEVQLPELFHKIGVGAMTWSPLACGIVSGKYDSGIPPYSRASLKGYQWLKDKILSEEGRRQQAKLKELQAIAERLGCTLPQLAIAWCLRNEGVSSVLLGASNADQLMENIGAIQVLPKLSSSIIHEIDSIL", "notes": "Expressed in HEK293T cells"}, "B11": {"name": "Kvβ2 isoform 2 (other, human, UniProt Q13303-2 1-353, looked up)", "chain": "MYPESTTGSPARLSLRQTGSPGMIYRNLGKSGLRVSCLGLGTWVTFGGQITDEMAEQLMTLAYDNGINLFDTAEVYAAGKAEVVLGNIIKKKGWRRSSLVITTKIFWGGKAETERGLSRKHIIEGLKASLERLQLEYVDVVFANRPDPNTPMEETVRAMTHVINQGMAMYWGTSRWSSMEIMEAYSVARQFNLTPPICEQAEYHMFQREKVEVQLPELFHKIGVGAMTWSPLACGIVSGKYDSGIPPYSRASLKGYQWLKDKILSEEGRRQQAKLKELQAIAERLGCTLPQLAIAWCLRNEGVSSVLLGASNADQLMENIGAIQVLPKLSSSIIHEIDSILGNKPYSKKDYRS", "notes": "Only the isoform number is printed; Whether it matches the UniProt isoform numbering is not confirmed"}, "B12": {"name": "Kvβ2 isoform 3 (other, human, UniProt Q13303-3 1-415, looked up)", "chain": "MLSMTYSESLRSVSSRCHSEWALHPVRQTDTLELQRLREVRAAAQARNMESFLRMHGLSLDGCTAQRTGMKYRNLGKSGLRVSCLGLGTWVTFGGQITDEMAEQLMTLAYDNGINLFDTAEVYAAGKAEVVLGNIIKKKGWRRSSLVITTKIFWGGKAETERGLSRKHIIEGLKASLERLQLEYVDVVFANRPDPNTPMEGDPFSSSKSRTFIIEETVRAMTHVINQGMAMYWGTSRWSSMEIMEAYSVARQFNLTPPICEQAEYHMFQREKVEVQLPELFHKIGVGAMTWSPLACGIVSGKYDSGIPPYSRASLKGYQWLKDKILSEEGRRQQAKLKELQAIAERLGCTLPQLAIAWCLRNEGVSSVLLGASNADQLMENIGAIQVLPKLSSSIIHEIDSILGNKPYSKKDYRS", "notes": "as for B11"}, "B13": {"name": "Kvβ2 isoform 5 (other, human, UniProt Q13303-5 1-395, looked up)", "chain": "MYPESTTGSPARLSLRQTGSPGMIYSTRYGSPKRQLQFYRNLGKSGLRVSCLGLGTWVTFGGQITDEMAEQLMTLAYDNGINLFDTAEVYAAGKAEVVLGNIIKKKGWRRSSLVITTKIFWGGKAETERGLSRKHIIEGLKASLERLQLEYVDVVFANRPDPNTPMEETVRAMTHVINQGMAMYWGTSRWSSMEIMEAYSVARQFNLTPPICEQAEYHMFQREKVEVQLPELFHKIGVGAMTWSPLACGIVSGKYDSGIPPYSRASLKGYQWLKDKILSEEGRRQQAKLKELQAIAERLGCTLPQLAIAWCLRNEGVSSVLLGASNADQLMENIGAIQVRVRGPAGQRAHPSPSPVQCILPGSSCVPGSVLGTQDAPVNHQSCAPGELAFQQEQT", "notes": "as for B11"}}, "key": {"[1]": {"experiment": "peptide treatment of non-tumor-bearing mice", "format": "in vivo", "procedure": "To further determine the impact of peptide treatment on mouse physiology, non-tumor-bearing mice were treated with K59-78^TAT or K90-114^TAT."}, "[2]": {"biological_target": "T1, human voltage-gated potassium channel subfamily H member 5 (KCNH5, EAG2) (human, UniProt Q8NCM2 1-988)", "T1 construct": "Full length EAG2 expressed in HEK293T cells and tested by co-IP from lysates; This id also stands for endogenous human EAG2 in lysates of GBM cells and of human fetal neural progenitor cells; also called full length EAG2", "T1 sequence": "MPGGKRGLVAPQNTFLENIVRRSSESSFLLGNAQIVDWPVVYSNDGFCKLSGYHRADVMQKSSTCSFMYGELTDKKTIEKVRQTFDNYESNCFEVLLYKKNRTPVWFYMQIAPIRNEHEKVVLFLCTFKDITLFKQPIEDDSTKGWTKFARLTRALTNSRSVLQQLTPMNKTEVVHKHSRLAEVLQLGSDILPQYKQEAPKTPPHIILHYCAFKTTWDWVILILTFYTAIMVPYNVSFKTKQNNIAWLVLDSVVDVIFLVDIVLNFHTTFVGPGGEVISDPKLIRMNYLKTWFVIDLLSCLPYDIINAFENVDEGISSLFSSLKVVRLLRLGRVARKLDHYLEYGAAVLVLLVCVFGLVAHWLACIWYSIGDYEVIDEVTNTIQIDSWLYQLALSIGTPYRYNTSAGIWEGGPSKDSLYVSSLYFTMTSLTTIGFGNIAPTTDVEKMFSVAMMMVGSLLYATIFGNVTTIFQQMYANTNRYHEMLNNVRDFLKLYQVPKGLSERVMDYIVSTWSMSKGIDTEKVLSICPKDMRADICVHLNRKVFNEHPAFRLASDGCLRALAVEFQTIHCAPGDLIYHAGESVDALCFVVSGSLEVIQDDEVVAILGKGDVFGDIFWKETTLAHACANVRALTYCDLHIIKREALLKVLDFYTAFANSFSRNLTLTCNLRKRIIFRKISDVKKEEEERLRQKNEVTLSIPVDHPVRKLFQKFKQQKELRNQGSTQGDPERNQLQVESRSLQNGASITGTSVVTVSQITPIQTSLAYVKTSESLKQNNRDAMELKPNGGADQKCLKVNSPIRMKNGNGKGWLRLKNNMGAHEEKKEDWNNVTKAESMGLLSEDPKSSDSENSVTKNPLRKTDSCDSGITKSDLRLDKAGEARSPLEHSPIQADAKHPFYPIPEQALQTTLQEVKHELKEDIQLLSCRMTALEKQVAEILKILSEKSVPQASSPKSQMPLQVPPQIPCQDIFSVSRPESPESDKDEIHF", "experiment": "co-IP in HEK293T cells (FIG. 26)", "method": "Co-IPs of overexpressed proteins are performed using HEK293T cells."}, "[3]": {"biological_target": "T1, human voltage-gated potassium channel …", "experiment": "co-IP of overexpressed proteins in HEK293T cells"}, "[4]": {"biological_target": "T1, human voltage-gated potassium channel …", "experiment": "co-IP in HEK293T cells"}}, "note": "No end group written: not given here."}
{"molecule": "GRKKRRQRRRPQGSGSGSYAAGKAEVVLGNIIKKKGWRRSSLV [K90-114^TAT]", "values": [{"measurement": "pathological features of internal organs (heart, kidney, liver, lung)", "setting": "[1]", "value": "did not reveal pathological features"}, {"measurement": "body weight", "setting": "[1]; K59-78^TAT versus K90-114^TAT", "value": "comparable body weight"}, {"measurement": "survival", "setting": "[1]; K59-78^TAT versus K90-114^TAT", "value": "comparable"}]}
{"molecule": "B1", "values": [{"measurement": "binding result", "setting": "[2]", "value": "binds"}]}
{"molecule": "B2", "values": [{"measurement": "binding result", "setting": "[2]", "value": "binds"}]}
{"molecule": "B3", "values": [{"measurement": "binding result", "setting": "[3]", "value": "binds"}]}
{"molecule": "B4", "values": [{"measurement": "binding result", "setting": "[3]", "value": "binds"}]}
{"molecule": "B5", "values": [{"measurement": "binding result", "setting": "[4]", "value": "binds"}]}
{"molecule": "B6", "values": [{"measurement": "binding result", "setting": "[3]", "value": "binds"}]}
{"molecule": "B7", "values": [{"measurement": "binding result", "setting": "[3]", "value": "no binding"}]}
{"molecule": "B8", "values": [{"measurement": "binding result", "setting": "[3]", "value": "no binding"}]}
{"molecule": "B9", "values": [{"measurement": "binding result", "setting": "[3]", "value": "no binding"}]}
{"molecule": "B10", "values": [{"measurement": "binding result", "setting": "[3]", "value": "no binding"}]}
{"molecule": "B11", "values": [{"measurement": "binding result", "setting": "[4]", "value": "no binding"}]}
{"molecule": "B12", "values": [{"measurement": "binding result", "setting": "[4]", "value": "no binding"}]}
{"molecule": "B13", "values": [{"measurement": "binding result", "setting": "[4]", "value": "no binding"}]}
